Consider 41 sequences from the nanobody polyreactivity screen of Harvey et al. (2022).

A short description of this series: yeast display, Sf9 membrane polyspecificity reagent, FACS + sequencing; frameworks hold sequencing errors. An outline of the steps:
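In a synthetic yeast display library (Saccharomyces cerevisiae BJ5465), nanobody expression was induced with galactose for 36–48 hours. FACS gates were set low and high (top ~1%) using anti-HA fluorescence for expression and streptavidin fluorescence for binding of the Sf9 membrane reagent. Each polyreactivity label is drawn from the gate of origin.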
Turning to “QVQLVESGGGLVQAGGSLRLSCAASGSTFTLNAMGWSRQAPGKERELVADITSGGGGTYYADSVKGRFTISRDNAKNTVYLQMNSLKPEDTAVYYCAKTYRPSYNPYISFGFDYWGQGTQVTVSS”, the “polyreactivity (PSR sort gate)” value is on record as “low polyreactivity”. The value for “QVQLVESGGGLVQAGGSLRLSCAASGSTFTLNAMGWYRQAPGKERELVAAITSGGRTKYADSVKGRFTISRDNAKNTVYLQMNSLKPEDTAVYYCAATFAGGYGYWGQGTQVTVSS” was “high polyreactivity”. As to “QVQLVESGGGLVQAGGSLRLSCAASGSTFTLNAMGWYRQAPGKERELVADISWSSGRTYYADSVKGRFTISRDNAKNTVYLQMNSLKPEDTAVYYCNKDDNSYGLNYWGQGTQVTVSS”, the “polyreactivity (PSR sort gate)” value is “low polyreactivity”.

As for “QVQLVESGGGLVQAGGSLRLSCAASGSTFTLYAMGWSRQAPGKERELVAAISRSGGRTYYADSVKGRFTISRDNAKNTVYLQMNSLKPEDTAVYYCNAPYKQDYDYWGQGTQVTVSS”, the “polyreactivity (PSR sort gate)” value was “high polyreactivity”. Consider “QVQLVESGGGLVQAGGSLRLSCAASGSTFTLYAMGWYRQAPGNERELVASITASDGSTSYADSVKGRFTISRDNAKNTVYLQMNSLKPEDTAVYYCAARYRVRGISYYYWGQGTQVTVSS”, for which the “polyreactivity (PSR sort gate)” value is on record as “low polyreactivity”. The value for “QVQLVESGGGLVQAGGSLRLSCAASGSTFTNYAMGRYRQSAGKERELLAAINSGGSTHYADSVKGRFTISRDNANNTVYLQMYSLKPEDTAVYYCDADPSALVYYWRWLGYDYWGQGTQVTVSS” was “high polyreactivity”. Consider “QVQLVESGGGLVQAGGSLRLSCAASGSTFTNYAMGWYRQAPGKERELLARITYNVGRTYYADSVKGRFTISRDNAKNTVYLQMNSLKPEDTAVYYCAAGVGWRYRVRWYYSLGDYWGQGTQVTVSS”, for which the “polyreactivity (PSR sort gate)” value is recorded as “high polyreactivity”. With “QVQLVESGGGLVQAGGSLRLSCAASGSTFTNYAMGWYRQAPGKERELVAAITSVGSTYYADSVKGRFTISRDNAKNTVYLQMNSLKPEDTAVYYCNVVYRDQYNYWGQGTQVTVSS” the entry was “low polyreactivity”.

Take “QVQLVESGGGLVQAGGSLRLSCAASGSTFTPNAMGWYRQAPGKERELVASISTTGGNTYYADSVKGRFTISRDNAKNTVYLQMNSLKPEDTADYYCNAVRSVYLYGYIYGVDYWGQGTQVTVSS”: the “polyreactivity (PSR sort gate)” value is recorded as “low polyreactivity”.

For “QVQLVESGGGLVQAGGSLRLSCAASGSTFTPNARGSYRQAPGKERELVAAINYLGGSTYYADSVKGRFTISRDNAKNTVYVQMNSLKPEDTAVYYCARRQYFRGQRYDYWGQGTQVTVSS”, the “polyreactivity (PSR sort gate)” value is “high polyreactivity”.

Consider “QVQLVESGGGLVQAGGSLRLSCAASGSTFTPYAMGWYRQAPGKERELVAAINSRGGSTYYADSVKGRFTISRDNAKNTVYLQMHSLKPEDSAVYYCAARTRRRTSAYEYWGQGTQVTVSS”, for which the “polyreactivity (PSR sort gate)” value is “high polyreactivity”. “QVQLVESGGGLVQAGGSLRLSCAASGSTFTPYAMGWYRQAPGKERELVASITIGGSTYADSVKGRFTISRDNAKNTVYLQMNSLKPEDTAVYSCNADWNWYPFLYSRMDYWGQGTQVTVSS”: the “polyreactivity (PSR sort gate)” value is on record as “low polyreactivity”.

As to “QVQLVESGGGLVQAGGSLRLSCAASGSTFTPYGMGWYRQAPGKERELVAAITVSGGRTYYADSVKGRFTISRDNAKNTVYLQMNSLKPEDTAVYYCAAVYLRGDGEYDSWGQGTQVTVSS”, the “polyreactivity (PSR sort gate)” value is recorded as “low polyreactivity”.

On to “QVQLVESGGGLVQAGGSLRLSCAASGSTFTQKAMGWYRQAPGKERELVAAISSSGTRTYYADSVKGRFTISRDNAKNTVYLQMNSLKPEDTAVYYCNARYRIGSWYEFGSWGQGTQVTVSS”, for which the “polyreactivity (PSR sort gate)” value is “high polyreactivity”. Regarding “QVQLVESGGGLVQAGGSLRLSCAASGSTFTQYVMGWYRQAPGKERELVAAISDSGSTYYADSVKGRFTISRDNAKNTVYLQMNSLKPEDTAVYYCATDVLAWAPYDYWGQGTQVTVSS”, the “polyreactivity (PSR sort gate)” value is reported as “low polyreactivity”.

On to “QVQLVESGGGLVQAGGSLRLSCAASGSTFTRNTMGWYKQAPGKEREMVAAISRRGGRTDYADSVKGRFTISRDNAKNSVYLQMNSLKPEDTAVYYCAADPITVDQNPRYGYWGQGTQVTVSS”, for which the “polyreactivity (PSR sort gate)” value is recorded as “high polyreactivity”.

In the case of “QVQLVESGGGLVQAGGSLRLSCAASGSTFTRYAMGWYRQAPGKERELVASISRSGGRTYYADSVKGRFTISRDNAKNTVYLQMNSLKPEDTAVYYCAKLYLVTKSLLEITGGKYDGDYWGQGTQVTVSS”, the “polyreactivity (PSR sort gate)” value is “high polyreactivity”. In the case of “QVQLVESGGGLVQAGGSLRLSCAASGSTFTRYDMGSYRQAPGKERELVAAISKSGGSTYYADSVKGRFRISRDNAKNTVYLQMNSLKPEDTAVYYCNQLVEEDYWGQGTQVTVSS”, the “polyreactivity (PSR sort gate)” value was “low polyreactivity”. In the case of “QVQLVESGGGLVQAGGSLRLSCAASGSTFTRYDMGWYRQAPGKERELVAAISKSGGSTYYADSVKGRFTISRDNAKNTVYLQMNSLKPEDTAVYYCARGSTKYHIYSLDYWGQGTQVTVSS”, the “polyreactivity (PSR sort gate)” value is recorded as “low polyreactivity”. The value for “QVQLVESGGGLVQAGGSLRLSCAASGSTFTSSAMGWYRQAPGKERELVAAISKSGGSTYYADSVKGRFTLSRDNAKNTVYLQMNSLKPEDTAVYYCAARYNVRSYSTSRFDYWGQGTQVTVSS” was “low polyreactivity”; that for “QVQLVESGGGLVQAGGSLRLSCAASGSTFTSYAMGWYRQAPGKERELVAAINYSGGSTYYADSVKGRFTISRDNAKNTVYLQMNSLKPEDTAVYYCAADGYIRQYVTYYYWGQGTQVTVSS” was “low polyreactivity”; that for “QVQLVESGGGLVQAGGSLRLSCAASGSTFTSYAMGWYRQAPGKERELVAGITSRGTSTYYADSVKGRFTISRDNAKNTVYLQMNSLKPEDTAVYYCARDPYQPKVSGRLFLRYDYWGQGTQVTVSS” was “high polyreactivity”. The value for “QVQLVESGGGLVQAGGSLRLSCAASGSTFTSYAMGWYRQAPGKERELVATISKISGSTYYADSVKGRFTISRDNAKNTVYLQMNSLKPEDTAVYYCAAKQGWVQSSILWYRAYGYWGQGTQVTVSS” was “high polyreactivity”.

For the sequence “QVQLVESGGGLVQAGGSLRLSCAASGSTFTTNAMGWYIQAPGKERELVASITWSGGGTNYADSVKGRFTISRDNAKNTVYLQMNSLKPEDTAVYYCAADYDDSHLRSDYWGQGTQVTVSS”, the “polyreactivity (PSR sort gate)” value is reported as “low polyreactivity”. “QVQLVESGGGLVQAGGSLRLSCAASGSTFTTYAMGWYRQAPGKERELVAVITDSRGTYYADSVKGRFTISRDNAKNTVYLQMHSLKPEDTALYYCNRVFPPTDYEFDSWGQGTQVTVSS”: the “polyreactivity (PSR sort gate)” value was “low polyreactivity”. With “QVQLVESGGGLVQAGGSLRLSCAASGSTFTVNAMGWYRQAPGKERELVAAINGSGDITYYADSVTGRFTISRDNAKNTVYLQMNSLKPEDTAVYYCAADQGVPSTYDYWGQGTQVTVSS”, the “polyreactivity (PSR sort gate)” value is “low polyreactivity”. Regarding “QVQLVESGGGLVQAGGSLRLSCAASGSTFTVNDMGWYRQAPGKERELVAAITQRDGRTFYADSVKGRFTISRDNAQNTVYLLMNSLKPEDTAVYYCAADYGWYTYGDYDYWGQGTQVTVSS”, the “polyreactivity (PSR sort gate)” value is “low polyreactivity”. For “QVQLVESGGGLVQAGGSLRLSCAASGSTFTVYAMGWYRQAPGKERELVAAIRDGSSTNYADSVKGRFTISRDNAKNTVYLQMNSLKPEDTAVYYCNAPYPPTGYGDDDYWGQGTQVTVSS”, the “polyreactivity (PSR sort gate)” value is listed as “low polyreactivity”.

For the sequence “QVQLVESGGGLVQAGGSLRLSCAASGSTFTVYAMGWYRQAPGKERELVAAISWGGGSTNYADSVKGRFTISRDNAKNTVYLQMNSLKPEDTAVYYCNADIDDIIGSWGDYWGQGTQVTVSS”, the “polyreactivity (PSR sort gate)” value is on record as “low polyreactivity”. Consider “QVQLVESGGGLVQAGGSLRLSCAASGSTFTWNVMGWYREAPGKERELVAAIDGSGGDTYYADSVKGRFTISRDHAKNTVYLQMNSLNPEDTAVYYCAAEDAAAYSENDYWGQGTQVTVSS”, for which the “polyreactivity (PSR sort gate)” value was “low polyreactivity”. With “QVQLVESGGGLVQAGGSLRLSCAASGSTFTWYAMGWNRQAPGKERELVADITWRDGSTYYADSVKGRFTISRDNAKNTVYLQMNSLKPEDTAVYYCNARRDYDMDWGQGTQVTVSS” the entry was “high polyreactivity”. With “QVQLVESGGGLVQAGGSLRLSCAASGSTFTWYAMGWYRQAPGKERELVAAISWSGDSTYYADSVKGRFTISRDNAKNTVYLQMNSLKPEDTAVYYCAAENVYGYDYWGQGTQVTVSS” the entry was “high polyreactivity”; with “QVQLVESGGGLVQAGGSLRLSCAASGSTFTWYAMGWYRQAPGKERELVARINFSGGSTYADSVKGRFTISRDNAKNTVYLQMNSLKPEDTAVYYCAAVYPGRKARRKYDYWGQGTQVTVSS”, “low polyreactivity”; with “QVQLVESGGGLVQAGGSLRLSCAASGSTFTWYAMGWYRQAPWKERELVADISYGGGSTYYADSVKGRFTISRDNAKNTVYLQMNSLKPEDTEVYYCAAASYLYLYLLEDYWGQGTQVTVSS”, “low polyreactivity”. As to “QVQLVESGGGLVQAGGSLRLSCAASGSTFTWYGMGWYRQAPGKETELVAAISGSGGRTYYADSVKGRFTISRDNAKNTVYFQMNSLKPEDTAVYYCNADPANPFGTEFEYWGQGTQVTVSS”, the “polyreactivity (PSR sort gate)” value is reported as “high polyreactivity”.

In the case of “QVQLVESGGGLVQAGGSLRLSCAASGSTFTYNAMGWYRQAPGKERELVASISSGTTTYYADSVKGRFTISRDNAKNTVYLQMNSLKPEDTAVYYCNADYFDYSRPRYDYWGQGTQVTVSS”, the “polyreactivity (PSR sort gate)” value is listed as “low polyreactivity”.

Take “QVQLVESGGGLVQAGGSLRLSCAASGSTFTYNTMGWYRQAPGQERELVAAISSGGSTYYADSVKGRFTFSRDNAKNTVSLQMNSLKPEDTAVYYCAARSRYGESPGYYWGQGTQVTVSS”: the “polyreactivity (PSR sort gate)” value is recorded as “high polyreactivity”. For the sequence “QVQLVESGGGLVQAGGSLRLSCAASGSTFTYYAMGWYRQAPGKERELFAAITFRGDSTYYADSVKGRFTISRDNAKNTVYLQMNILKPEDTAVYYCNADSISSTYYDEDYWGQGTQVTVSS”, the “polyreactivity (PSR sort gate)” value is “low polyreactivity”.

“QVQLVESGGGLVQAGGSLRLSCAASGSTFTYYAMGWYRQAPGKERELVAAISNSGTSTYYADSVKGRFTISRDNAKNTVYLQMNSLKPEDTAVYYCNAYSDLFGSYTDLGEYDYWGQGTQVTVSS”: the “polyreactivity (PSR sort gate)” value is listed as “low polyreactivity”. With “QVQLVESGGGLVQAGGSLRLSCAASGSTFTYYAMGWYRQAPGKERELVAAISRRGGSTYYADSVKGRFTISRDNAKNTVYLQMNSLKPEDTAVYYCNARLKPLWGGRYDYWGQGTQVTVSS”, the “polyreactivity (PSR sort gate)” value was “high polyreactivity”. The value for “QVQLVESGGGLVQAGGSLRLSCAASGSTFTYYAMGWYRQAPGKERELVAAISRRGGSTYYADSVKGRFTISRDNAKNTVYLQMNSLKPEDTAVYYCNVVIYSYGINGRYDYWGQGTQVTVSS” was “high polyreactivity”.
